Measurements: patent US20230257436A1 (published 2023)
Values belong to the molecule of their own block, whether it stands above or below them.

Tests used:
[1] = target: T1, human prosaposin (PSAP) secreted from ARPE-19 cells stably transfected with human PSAP cDNA (human) (UniProt P07602); test: western blot of purified PGRN/PSAP complexes
T1 sequence: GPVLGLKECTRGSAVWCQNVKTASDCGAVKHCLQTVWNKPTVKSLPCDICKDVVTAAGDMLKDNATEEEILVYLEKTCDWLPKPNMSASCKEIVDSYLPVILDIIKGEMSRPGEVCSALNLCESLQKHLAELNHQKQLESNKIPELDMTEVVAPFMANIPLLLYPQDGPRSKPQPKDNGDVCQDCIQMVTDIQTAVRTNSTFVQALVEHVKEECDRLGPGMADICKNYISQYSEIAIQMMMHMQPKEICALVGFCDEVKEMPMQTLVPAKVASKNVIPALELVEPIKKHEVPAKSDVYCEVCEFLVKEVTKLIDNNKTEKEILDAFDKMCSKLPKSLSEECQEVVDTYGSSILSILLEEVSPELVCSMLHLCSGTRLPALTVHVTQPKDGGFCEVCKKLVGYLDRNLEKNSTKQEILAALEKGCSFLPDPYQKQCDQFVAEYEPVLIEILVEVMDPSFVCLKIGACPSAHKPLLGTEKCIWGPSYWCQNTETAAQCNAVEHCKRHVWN

[2] = target: T2, endogenous human progranulin (PGRN) in human plasma and CSF (human, UniProt P28799 18-593); test: sandwich ELISA on human plasma and CSF
T2 sequence (looked up): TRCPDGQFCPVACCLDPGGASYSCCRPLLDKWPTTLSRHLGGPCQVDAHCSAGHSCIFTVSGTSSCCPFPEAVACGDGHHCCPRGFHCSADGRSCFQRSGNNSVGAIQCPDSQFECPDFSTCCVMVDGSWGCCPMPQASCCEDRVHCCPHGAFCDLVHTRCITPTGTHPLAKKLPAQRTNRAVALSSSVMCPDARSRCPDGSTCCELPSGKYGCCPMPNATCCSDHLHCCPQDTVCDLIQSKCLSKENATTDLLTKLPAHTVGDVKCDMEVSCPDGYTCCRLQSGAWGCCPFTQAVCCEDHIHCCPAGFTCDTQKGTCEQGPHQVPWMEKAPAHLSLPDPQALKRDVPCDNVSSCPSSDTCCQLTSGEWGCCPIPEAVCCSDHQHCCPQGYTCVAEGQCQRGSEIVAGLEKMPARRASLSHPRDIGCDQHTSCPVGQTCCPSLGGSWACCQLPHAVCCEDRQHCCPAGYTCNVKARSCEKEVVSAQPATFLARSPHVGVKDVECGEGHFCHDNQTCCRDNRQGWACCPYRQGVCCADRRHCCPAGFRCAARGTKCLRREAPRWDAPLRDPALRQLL

[3] = target: T3, commercially available recombinant PGRN (R&D Systems; PGRN-His, cat no. 2420-PG) (UniProt P28799 18-593, limits assumed); test: mixing in vitro, western blot
T3 construct: The assay is titled 'Human PGRN/PSAP Complex Assay'; not shown: His tag
T3 sequence (looked up): T2 sequence (looked up)

- stoichiometry of PGRN and PSAP in the complex (PGRN:PSAP ratio) [1]: 1
Molecule: human progranulin (PGRN) secreted from ARPE-19 cells stably transfected with the human progranulin gene (pT2.CAn.PGRN plasmid) (from UniProt P28799 18-593) (ligand)

- binding result [2]: binds
B1: endogenous human prosaposin (PSAP), as expressed by non-PSAP-transfected ARPE-19 derived cells and as present in human plasma and CSF (ligand, UniProt P07602 17-524, looked up)
chain: T1 sequence

- binding result [3]: binds
B2: human prosaposin (PSAP) secreted from ARPE-19 cells stably transfected with human PSAP cDNA (ligand)
chain: T1 sequence
notes: The protein was secreted into conditioned medium; no signal peptide limits are stated; also called ARPE-PSAP; PSAP (#7)
